Measured values published in paper doi:10.1101/2024.04.17.589973 (2024).
Where no end group is shown, it is not given here.

These binders were tested against T1, human TLR3 ectodomain (Wuxi Biologics, custom order) (human, UniProt O15455 24-704, biotin (for yeast display)) (assay: BLI).

| Binder | Kd |
| --- | --- |
| minibinder 7.8 (designed binder, also: biotinylated (site not given here)) SAMEYYVKELLRTAEYAREAGDPEYVRKALEQAELVARILHNEELKEEIREVEEEL | 40 nM |
| minibinder 7.10 (designed binder, also: biotin) SAMEYYVKELLRTAEYAREAGEPEYVRNALEQAELVARILHNEELKEEIREVEEEL | 190 nM |
| minibinder 7.7 (designed binder, also: biotin) SAMEYYVKELLRTAEYAREAGDPEYVRKALEKAELVARILHNEELKEEIREVEEEL | 31 nM |
| minibinder 7.11 (designed binder, also: biotin) SAMEYYVKELLRTAEYAREAGDPEDVRKALEQAELVARILHNEELKEEIREVEEEL | 45 nM |
| minibinder 7.9 (designed binder, also: biotinylated (site not given here)) SAMEYYVKELLRTAEYAREAGDPEYVRNALEQAELVARILHNEELKEEIREVEEEL | 95 nM |
| minibinder 7.4 (designed binder, also: biotin) SAMEYYVNVLLRTAEYAREAGDPEDVRKALEKAELVARILHNEELKEEIREVEEEL | 34 nM |
| minibinder 7.5 (designed binder, also: biotin) SAMEYYVKVLLRTAEYAREAGDPEDVRKALEQAELVARILHNEELKEEIREVEEEL | 1.1 nM |

Further lines, results first:

| Kd | Binder |
| --- | --- |
| 108 nM | minibinder 7.12 (designed binder, also: biotin) SAMEYYVKELLRTAEYAREAGDPEDVRNALEQAELVARILHNEELKEEIREVEEEL |
| 17 nM | minibinder 7.2 (designed binder, also: biotin) SAMEYYVKVLLRTAEYAREAGDPEYVRKALEKAELVARILHNEELKEEIREVEEEL |
| 29 nM | minibinder 7.3 (designed binder, also: biotin) SAMEYYVKVLLRTAEYAREAGDPEYVRKALEQAELVARILHNEELKEEIREVEEEL |
| 24 nM | minibinder 7.6 (designed binder, also: biotin) SAMEYYVKELLRTAEYAREAGDPEDVRKALEKAELVARILHNEELKEEIREVEEEL |

Target: T1, human TLR3 ectodomain (Wuxi Biologics, …)
Test: BLI
Remark: another data set of the same source

| Kd | Binder |
| --- | --- |
| 440 nM | minibinder 7 with C-terminal Avi-His6 tag (designed binder, also: biotin) SAMERYVKVLLRTAELAREAGDPEDVRKALEKAELVARILHNEELKEEIREVEEEL-{Avi tag-His6} |
| 1200 nM | minibinder 8 with C-terminal Avi-His6 tag (designed binder, also: biotin (for BLI), position not given here) SLEEEAERVVEELVKEFNLSETQEIALRRYAEFAAKAGASEEVIEELLRRVAERLS-{Avi-His6} |

Target: T1, human TLR3 ectodomain (Wuxi Biologics, …)
Test: BLI
Remark: another data set of the same source

| Binder | Kd |
| --- | --- |
| minibinder 8.5 (designed binder, also: biotin (for BLI), position not given here) SLEEEAERVVEELVKEFNLSRTQEIALRRYAEYAARATASEEVIEELLRRVAERLS | 170 nM |
| minibinder 8.3 (designed binder, also: biotin (for BLI), position not given here) SLEEEAERVVEELVKEFNLSRTQEIALRRYAEYAAKAGASEEVIEELLRRVAERLS | 230 nM |
| minibinder 8.2 (designed binder, also: biotin (for BLI), position not given here) SLEEEAERVVEELVKEFNLSETQEIALRRYAEYAAKAGASEEVIEELLRRVAERLS | 600 nM |

Continued, values first:

| Kd | Binder |
| --- | --- |
| 690 nM | minibinder 8.1 (designed binder, also: biotinylated (site not given here)) SLEEEAERVVEELVKEFNLSRTQEIALRRYAEFAAKAGASEEVIEELLRRVAERLS |
| 230 nM | minibinder 8.4 (designed binder, also: biotin (for BLI), position not given here) SLEEEAERVVEELVKEFNLSRTQEIALRRYAEYAARAGASEEVIEELLRRVAERLS |

Target: T1, human TLR3 ectodomain (Wuxi Biologics, …)
Test: BLI
Remark: another data set of the same source

| Kd | Binder |
| --- | --- |
| 43 nM | minibinder 6 with C-terminal Avi-His6 tag (designed binder, also: biotin) SAVELYLELLERSLRLAVEAGDPEDAERILRKARQIARVFNDPELEEIVERMEEILK-{Avi tag-His6} |
